In patent publication US20210373004A1 (BIOASTER, published 2021):

Key:
Flag-EmGFP-ColE7-6His [1] = target: T1, Flag-EmGFP-ColE7-6His (Escherichia coli); test: EIA 8 plex n° 1: colicin coated at 100 nM, Im-RLuc8 alone at 100 nM, luciferase signal
T1 construct: also called Colicin E7

[2] = target: T2, Flag-mCherry-ColAP41-Cys-6His (Pseudomonas aeruginosa AP41); test: as above
[3] = target: T3, Flag-mCherry-ColSyr-Cys-6His (Pseudomonas syringae B728A); test: as above
Flag-mCherry-ColE8-6His [4] = target: T4, Flag-mCherry-ColE8-6His (Escherichia coli); test: EIA 8 plex n° 2: colicin coated at 100 nM, Im-RLuc8 alone at 100 nM, luciferase signal
T4 construct: also called Colicin E8

[5] = target: T5, Flag-mCherry-ColLeaf-Cys-6His (Pseudomonas sp Leaf83); test: as above
Flag-mCherry-ColE9-6His [6] = target: T6, Flag-mCherry-ColE9-6His (Escherichia coli); test: EIA 4 plex: colicin coated at 100 nM, Im-RLuc8 alone at 100 nM, luciferase signal (FIG. 1, light grey bars)
T6 construct: also called Colicin E9

Flag-mCherry-ColE9-6His [7] = target: T6, Flag-mCherry-ColE9-6His; test: EIA 8 plex n° 1: colicin coated at 100 nM, Im-RLuc8 alone at 100 nM, luciferase signal (FIG. 3, light grey bars)
Flag-mCherry-ColE9-6His [8] = target: T6, Flag-mCherry-ColE9-6His; test: EIA 8 plex n° 2: colicin coated at 100 nM, Im-RLuc8 alone at 100 nM, luciferase signal (FIG. 4, light grey bars)
Flag-EmGFP-ColE7-6His [9] = target: T1, Flag-EmGFP-ColE7-6His; test: kinetics, literature value (Li W. et al., 2004) printed above the bar pair; unit from the legend paragraph 10
Flag-mCherry-ColE8-6His [10] = target: T4, Flag-mCherry-ColE8-6His; test: as above
Flag-mCherry-ColE9-6His [11] = target: T6, Flag-mCherry-ColE9-6His; test: as above
[12] = target: T2, Flag-mCherry-ColAP41-Cys-6His; test: EIA 8 plex n° 1: colicin coated at 100 nM, Im-RLuc8 at 100 nM, luminescence; light bar alone, dark bar with the 7 other unfused Im proteins
[13] = target: T3, Flag-mCherry-ColSyr-Cys-6His; test: as above
[14] = target: T5, Flag-mCherry-ColLeaf-Cys-6His; test: EIA 8 plex n° 2: colicin coated at 100 nM, Im-RLuc8 at 100 nM, luminescence; light bar alone, dark bar with the 7 other unfused Im proteins

B1: Myc-RLuc8-Im9-6His (other)
chain: MGGEQKLISEEDLGGSASKVYDPEQRKRMITGPQWWARCKQMNVLDSFINYYDSEKHAENAVIFLHGNATSSYLWRHVVPHIEPVARCIIPDLIGMGKSGKSGNGSYRLLDHYKYLTAWFELLNLPKKIIFVGHDWGAALAFHYAYEHQDRIKAIVHMESVVDVIESWDEWPDIEEDIALIKSEEGEKMVLENNFFVETVLPSKIMRKLEPEEFAAYLEPFKEKGEVRRPTLSWPREIPLVKGGKPDVVQIVRNYNAYLRASDDLPKLFIESDPGFFSNAIVEGAKKFPNTEFVKVKGLHFLQEDAPDEMGKYIKSFVERVLKNEQKLELKHSISDYTEAEFLQLVTTICNADTSSEEELVKLVTHFEEMTEHPSGSDLIYYPKEGDDDSPSGIVNTVKQWRAANGKLEGGGSHHHHHH
notes: Immunity protein fused to the luciferase RLuc8 as reporter; added in solution; also called Im9-RLuc8; Im9-Rluc8
- RLU (Flag-EmGFP-ColE7-6His [1]): > 100000 RLU
- RLU [2]: > 100000 RLU
- RLU [3]: > 100000 RLU
- RLU (Flag-mCherry-ColE8-6His [4]): > 100000 RLU
- RLU [5]: > 100000 RLU
- RLU (Flag-mCherry-ColE9-6His [6]): > 400000 RLU
- RLU (Flag-mCherry-ColE9-6His [7]): > 2e+06 RLU
- RLU (Flag-mCherry-ColE9-6His [8]): > 2.4e+06 RLU
- Kd (Flag-EmGFP-ColE7-6His [9]): 38 nM
- Kd (Flag-mCherry-ColE8-6His [10]): 64 nM
- Kd (Flag-mCherry-ColE9-6His [11]): 0.024 pM
- binding result [12]: no binding (tested: 100 nM)
- binding result [13]: no binding (tested: 100 nM)
- binding result [14]: no binding (tested: 100 nM)
